In the RNAGym collection of RNA variant scans (doi:10.1093/nar/gkz1192) one finds self-cleavage data, which are given here for 34 variants.

To fix the notation:
B1: CPEB3 Ribozyme (parent)
chain: UAACAGGGGGCCACAGCAGAAGCGUUCACGUCGCAGCCCCUGUCAGAUUCUGGUGAAUCUGCGAAUUCUGCUGUAUAUCUC

This data set covers variants of B1. The data set can be described thus: self-cleavage, relative activity (ratio to wild type); higher = more cleavage; in vitro, sequencing. The method in brief:
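Relative activity compares each variant's cleaved/total read fraction with that of the unmutated ribozyme. To get these fractions, barcoded CPEB3 ribozyme libraries from rounds of error-prone PCR were transcribed with T7 RNA polymerase for 5 hours at 37°C and then given 15 min of DNase I treatment before EDTA was added. The RNAs were reverse transcribed with template switching and sequenced on Illumina, and DNA sequencing linked barcodes to variants. A minimum of 5 reads applied, and three batches were averaged.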
Turning to UAACAGGAGGCCACAGCAGAAGCGUUCACGUCGCAGCCCCUAUCAGAUUCUGGUGAAUCUGCGAAUUCUGCUGUAUAUCUC, the self-cleavage worked out at 0.1.
Next, UAACAGGAGGCCACAGCAGAAGCGUUCACGUCGCAGCCCCUGUCAGAUUCUGGUGAAUCUGCCAAUUCUGCUGUAUAUCUC: 0.19.
Regarding UAACAGGAGGCCACAGCAGAAGCGUUCACGUCGCAGCCCCUGUCAGAUUCUGGUGAAUCUGCGAAUUCUGCUGUAUAUAUC, the self-cleavage worked out at 0.18.
In the case of UAACAGGAGGCCACAGCAGAAGCGUUCACGUCGCAGCCCCUGUCAGAUUCUGGUGAAUCUGUGAAUUCUGCUGUAUAUCUC, the self-cleavage was found to be 0.22.
UAACAGGAGGCCACAGCAGAAGCGUUCACGUCGCAGCCCCUGUCAGAUUCUGGUGAAUCUGAGAAUUCUGCUGUAUAUCUC: the self-cleavage is 0.07.
For UAACAGGAGGCCACAGCAGAAGCGUUCACGUCGCAGCCCCUGUCAGAUUCUAGUGAAUCUGCGAAUUCUGCUGUAUAUCUC, the self-cleavage is 0.3.
As to UAACAGGAGGCCACAGCAGAAGCGUUCACUUCGCAGCCCCUGUCAGAUUCUGGUGAAUCUGCGAAUUCUGCUGUAUAUCUC, the self-cleavage worked out at 0.16.
Next, UAACAGGAGGCCACAGCAGAAGCGUUCACAUCGCAGCCCCUGUCAGAUUCUGGUGAAUCUGCGAAUUCUGCUGUAUAUCUC: 0.4; UAACAGGAGGCGACAGCAGAAGCGUUCACGUCGCAGCCCCUGUCAGAUUCUGGUGAAUCUGCGAAUUCUGCUGUAUAUCUC: 0.09.
On to UAACAGGAGGCCACAGCAGAAGCGUUCAUGUCGCAGCCCCUGUCAGAUUCUGGUGAAUCUGCGAAUUCUGCUGUAUAUCUC, for which the self-cleavage stood at 0.24.
For UAACAGGAGGCCACAGCAGAAGCGUUCACGUCGCAGCCCCUGUCAGAUUCUGGUGAAUCUGCGAAUUCUACUGUAUAUCUC, the self-cleavage was found to be 0.05.
Turning to UAACAGGAGGCCACAGCAGAAACGUUCACGUCGCAGCCCCUGUCAGAUUCUGGUGAAUCUGCGAAUUCUGCUGUAUAUCUC, the self-cleavage turned out to be 0.27.
As to UAACAGGAGGCCACAGCAGAAGCGUUCACGUCGUAGCCCCUGUCAGAUUCUGGUGAAUCUGCGAAUUCUGCUGUAUAUCUC, the self-cleavage is 0.39.
Turning to UAACAGGAGGCCACAGCAAAAGCGUUCACGUCGCAGCCCCUGUCAGAUUCUGGUGAAUCUGCGAAUUCUGCUGUAUAUCUC, the self-cleavage amounted to 0.06.
For UAACAGGAGGCCACAGCAGAAGCGUUCACGGCGCAGCCCCUGUCAGAUUCUGGUGAAUCUGCGAAUUCUGCUGUAUAUCUC, the self-cleavage was 0.41.
For UAACAGGAGGCCACAGCAGAAGCGUUCACGACGCAGCCCCUGUCAGAUUCUGGUGAAUCUGCGAAUUCUGCUGUAUAUCUC, the self-cleavage worked out at 0.18.
Consider UAACAGGAGGCCACAGCAGAAGCGUUCACGCCGCAGCCCCUGUCAGAUUCUGGUGAAUCUGCGAAUUCUGCUGUAUAUCUC, for which the self-cleavage stood at 0.24.
With UAACAGGAGGCCACAGCAGAAGCGUUCACGUCGCAGCCCCUGUCAGAUUCUGGUGAAUCUGCGAUUUCUGCUGUAUAUCUC, the self-cleavage amounted to 0.06.
In the case of UAACAGGAGGCCACAGCAGAAGCGUUCACGUCGCAGCCCCUGUCAGAUUCUGGUGAAUCUGCGAGUUCUGCUGUAUAUCUC, the self-cleavage was 0.14.
As to UAACAGGAGGCCACAGCAGAAGCGUUCACGUCGCAGCCCCUGUCAGAUUCAGGUGAAUCUGCGAAUUCUGCUGUAUAUCUC, the self-cleavage is 0.24.
UAACAGGAGGCCACAGCAGAAGCGUUCACGUCGCAGCCCCUGUCAGAUUCCGGUGAAUCUGCGAAUUCUGCUGUAUAUCUC: the self-cleavage came to 0.21.
For UAACAGGAGGCCACAGCAGAAGCGUUCACGUCGCAGCCCCUGUCAGACUCUGGUGAAUCUGCGAAUUCUGCUGUAUAUCUC, the self-cleavage is 0.15.
Regarding UAACAGGAGGCCACAGCAGAAGCGUUCACGUCGCAGCCCCUGUCAGAAUCUGGUGAAUCUGCGAAUUCUGCUGUAUAUCUC, the self-cleavage came out at 0.27.
With UAACAGGAGGCCACAGCAGAAGCGUUCACGUCGCAGCCCCUGUCAGAGUCUGGUGAAUCUGCGAAUUCUGCUGUAUAUCUC, the self-cleavage worked out at 0.37.
On to UAACAGGAGGCCACAGCAGAAGCGUUCACGUCGCAGACCCUGUCAGAUUCUGGUGAAUCUGCGAAUUCUGCUGUAUAUCUC, for which the self-cleavage was 0.15.
As to UAACAGGAGGCCACAGCAGAAGCGUUCACGUCGCAGUCCCUGUCAGAUUCUGGUGAAUCUGCGAAUUCUGCUGUAUAUCUC, the self-cleavage was found to be 0.05.
Next, UAACAGGAGGCCACAGCAGAAGCGUUCACGUCGCAGCCCCUGCCAGAUUCUGGUGAAUCUGCGAAUUCUGCUGUAUAUCUC: 0.14.
As to UAACAGGAGGCCACAGCAGAAGCGUUCACGUCGCAGCCCCUGACAGAUUCUGGUGAAUCUGCGAAUUCUGCUGUAUAUCUC, the self-cleavage was determined as 0.27.
Regarding UAACAGGAGGCCACAGCAGAAGCGUUCACGUCGCAGCUCCUGUCAGAUUCUGGUGAAUCUGCGAAUUCUGCUGUAUAUCUC, the self-cleavage stood at 0.08.
Take UAACAGGAGGCCACAGCAGAAGCGUUCACGUCGCAGCCCCUGUCAGAUUCUGGUGAAUAUGCGAAUUCUGCUGUAUAUCUC: the self-cleavage came to 0.06.
Turning to UAACAGGAGGCCACAGCAGAAGCGUUCACGUCGCAGCCCCUGUCAGAUCCUGGUGAAUCUGCGAAUUCUGCUGUAUAUCUC, the self-cleavage is 0.2.
Regarding UAACAGGAGGCCACAGCAGAAGCGUUCACGUCGCAGCCCCUGUCAGAUACUGGUGAAUCUGCGAAUUCUGCUGUAUAUCUC, the self-cleavage was determined as 0.25.
For the variant UAACAGGAGGCCACAGCAGAAGCGUUCACGUCGCAGCCCCUGUCAGAUUCUGGUGAAUCUGCGAAUUCUGCUAUAUAUCUC, the self-cleavage was 0.18.
As for UAACAGGAGGCCACAGCAGAAGCGUUCACGUCGCAGCCCAUGUCAGAUUCUGGUGAAUCUGCGAAUUCUGCUGUAUAUCUC, the self-cleavage came to 0.16.
